Measurements: the supplement of paper PMC9170038

Tested on: MS2 coat protein
Assay: apparent KD of MS2 coat protein; designed switch direction (-1 OFF switch, 1 ON switch): -1; higher = weaker reporter binding
Procedure, shortened: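 Normalised cluster fluorescence was curve-fitted, and each design's median over clusters is its apparent KD. Before this, SNAP-549-labelled MS2 coat protein was titrated from 0.7 or 1.5 nM, doubling to 3 µM, over RNA switches transcribed on Illumina chips by stalled E. coli RNA polymerase. Titrations had no input, 200 uM small-molecule ligand, or an oligonucleotide input, and steps lasted 0.8–1.5 h (lowest) to 10–20 min (highest).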

[1] = Eterna round: R95, input ligand: microRNA oligo, concentration not stated
[2] = input ligand: microRNA oligo, concentration not stated
[3] = Eterna round: R95, input ligand: FMN 200 uM
[4] = Eterna round: R95, input ligand: none

CUUUUGUGAGGAUAUCAGUAGUAAAUAAAUAAAAUUACUAUUGAGAAGGCACAUGAGGAUCACCCAUGUUCCUC [salish99_ex3_r3_088] (puzzle: Exclusion 4)
apparent KD of MS2 coat protein [1]: 33.9 nM

GUAGGGUCAGGAUAUACUGGCUGAGGGAUGUAUUGUAGUUGGUAGAAGGGACAUGAGGAUCACCCAUGUAAGAA [JR_Exclu4_Sub056] (puzzle: Exclusion 4)
apparent KD of MS2 coat protein [1]: 31.6 nM

AAUAACAGAGGAUAUACUAUUUUAUGUAUUUAUUAUUUUAAACAUGAGGAUCACCCAUGUAGAAGGCUGAAUAA [JMF 11] (puzzle: Exclusion 2)
apparent KD of MS2 coat protein [1]: 19.8 nM

CUCCCUCGGGUUAGGAUAUGCUACUGGCUUCAGAUGCAGAAGGAACAUGAGGAUCACCCAUGUACCAAAUAAAA [BmEX4 B.15] (Eterna round: R97, puzzle: Brourd's mod of Exclusion 4)
apparent KD of MS2 coat protein (input ligand: FMN 200 uM): 35 nM | apparent KD of MS2 coat protein (input ligand: none): 14.5 nM

UUAAUUAAUUUAUUAGAUCCUCACAUGAGGAUCACCCAUGUGCAGGAUAUCAGCUCGUUUAGAGCUGAGAAGGGCACUAUAAAU [ExNG3/10-B2] (Eterna round: R96, puzzle: Exclusion NG 3)
apparent KD of MS2 coat protein (input ligand: FMN 200 uM): 24.6 nM | apparent KD of MS2 coat protein [2]: 41.8 nM | apparent KD of MS2 coat protein (input ligand: none): 38.1 nM

GGUGAGCGAGGAUAUACAUGAGGAUCACCCAUGUGACGCUGUCCUUGGAAGAACCUCUGUAGAAGGCGCGGAAU [Veisrien] (Eterna round: R97, puzzle: Exclusion 3)
apparent KD of MS2 coat protein (input ligand: FMN 200 uM): 23.5 nM | apparent KD of MS2 coat protein (input ligand: none): 162 nM

UUUUACUCAGGAUAUACAUGAGGAUCACCCAUGUAUAUUGAAGAUAAUACAUGGGAAUGUAGAAGGGAGCUCAU [Omei Ex3 Pseudoloop 18] (Eterna round: R97, puzzle: Exclusion 3)
apparent KD of MS2 coat protein (input ligand: FMN 200 uM): 190 nM | apparent KD of MS2 coat protein (input ligand: none): 179 nM

UGGUAACAUGAGGAUCACCCAUGUCAGGAUAUCAGUAAGAAUAGAUGAGAGUAGAAGAUGAGAAGGGACUAUAU [Excluse me! 7 - Jieux - Exclusion 1] (puzzle: Exclusion 1)
apparent KD of MS2 coat protein [1]: 29.1 nM

CUCCUGUGAGGAUAUGUAGGCCGCCCGGUCAGCCGAGCGAGACAGAAGGCACAUGAGGAUCACCCAUGUGACUC [EX4 B.13] (Eterna round: R97, puzzle: Exclusion 4)
apparent KD of MS2 coat protein (input ligand: FMN 200 uM): 42.2 nM | apparent KD of MS2 coat protein (input ligand: none): 16.6 nM

UGCAGUGAUCCAGAAUGUUACAUGAGGAUCACCCAUGUUAGUAUUGUUUAGUUGUAUAAGUUUGUUGUUCGUUUUAU [JR_STOV1_v2_Sub079] (Eterna round: R97, puzzle: Sensor, turn-off variant 1)
apparent KD of MS2 coat protein (input ligand: FMN 200 uM): 68.8 nM | apparent KD of MS2 coat protein (input ligand: none): 202 nM

CCGAAUAUGCAGGAUAUCGUAUCGGAGACGAUACGAGAAGGGCAAACAUGAGGAUCACCCAUGUUCCUUAACGG [Mat - Exclusion 6 - Eli Mod - D75] (puzzle: Exclusion 6)
apparent KD of MS2 coat protein [1]: 15.9 nM

GUACUACAUGAGGAUCACCCAUGUCAGGAUAUGCGAAUUUCAUCAAAAGAUGAAAUUUGCAGAAGGGACAGUAC [Omei Ex1 A1] (Eterna round: R97, puzzle: Exclusion 1)
apparent KD of MS2 coat protein (input ligand: FMN 200 uM): 35.3 nM | apparent KD of MS2 coat protein (input ligand: none): 24.1 nM

AAUUAACAUGUAGGAUAUCUGCACGUUUAGUGCAGAGAAGGACAUGAGGAUCACCCAUGUAUAGCGACUUCGGUCGCAAUAAUU [ENG1/2-B2] (Eterna round: R96, puzzle: Exclusion NG 1)
apparent KD of MS2 coat protein (input ligand: FMN 200 uM): 377 nM | apparent KD of MS2 coat protein [2]: 105 nM | apparent KD of MS2 coat protein (input ligand: none): 131 nM

AGCGUCUGAGGAUAUGCAUCUUAUCAGUCCGUGCGUAAGCGACAUGAGGAUCACCCAUGUAGAAGGUAGAUGCG [Eternabot (L1) Solution 10] (Eterna round: R97, puzzle: Exclusion 2)
apparent KD of MS2 coat protein (input ligand: FMN 200 uM): 19.6 nM | apparent KD of MS2 coat protein (input ligand: none): 17.6 nM

AGGUGCUUCUGGAGACAUGAGGAUCACCCAUGUUGAGUUAGCGAGGAUAUCGGUAACCAUUGUUAUGAGAAGGCGCAAACCAGA [Ex NG3 #40] (Eterna round: R96, puzzle: Exclusion NG 3)
apparent KD of MS2 coat protein (input ligand: FMN 200 uM): 22.9 nM | apparent KD of MS2 coat protein [2]: 10.5 nM | apparent KD of MS2 coat protein (input ligand: none): 27.8 nM

GGCCCUAAGGUCAGAUUCACAAGCUUUUUGCUCGUUUUAACAUGAGGAUCACCCAUGUCUAGUGGAUCUGAUCCUCU [Sensor v3, turn-off variant 2 (MOD of Indiso v.1)] (puzzle: Sensor v3, turn-off variant 2)
apparent KD of MS2 coat protein [3]: 27.5 nM | apparent KD of MS2 coat protein [1]: 14.9 nM | apparent KD of MS2 coat protein [4]: 31.2 nM

UUAUAUAAUGUGAGGAUAUGCUGGUCCUUGGAUCAGCAGAAGGCACAUGAGGAUCACCCAUGUAGUAAAUUUUA [JL bmx4 3.02] (puzzle: Brourd's mod of Exclusion 4)
apparent KD of MS2 coat protein [1]: 17.9 nM

UAAAAGGUAGGAUAUACGAAAAAAAAGGGUAGAAAAAAAACACAUGAGGAUCACCCAUGUAGAAGGACCAAAAA [salish99_ex2_r3_049] (puzzle: Exclusion 2)
apparent KD of MS2 coat protein [3]: 137 nM | apparent KD of MS2 coat protein [1]: 38.4 nM | apparent KD of MS2 coat protein [4]: 38 nM

UAUUAGCAAGCAAAUGGGUACAUGAGGAUCACCCAUGUGCUCGUCUUAUAAGGUACUGUGACGAAAGUCCCGGUACC [mod--Eli6] (Eterna round: R97, puzzle: Sensor, turn-off variant 1)
apparent KD of MS2 coat protein (input ligand: FMN 200 uM): 28.9 nM | apparent KD of MS2 coat protein (input ligand: none): 21.9 nM

UAGAGAGAUAAGGAUAUCUAUUAAAUUGUGCGUAGAGAAGGUAUCACAUGAGGAUCACCCAUGUGGUCUAAUAA [Eternabot (L1) Solution 88] (Eterna round: R97, puzzle: Exclusion 6)
apparent KD of MS2 coat protein (input ligand: FMN 200 uM): 29.7 nM | apparent KD of MS2 coat protein (input ligand: none): 24.1 nM

CUUUUGUGAGGAUAUCAGUAUUAAAUAAAUAAAAUUACUACUGAGAAGGCACAUGAGGAUCACCCAUGUUCCUC [salish99_ex3_r3_074] (puzzle: Exclusion 4)
apparent KD of MS2 coat protein [1]: 37.5 nM

CUGAGUAGUCAGGAUAUGUGGUACAAAAGUACUGCAGAAGGGAUUACAUGAGGAUCACCCAUGUUAUCUUCAUG [Omei Ex6 B19] (Eterna round: R97, puzzle: Exclusion 6)
apparent KD of MS2 coat protein (input ligand: FMN 200 uM): 368 nM | apparent KD of MS2 coat protein (input ligand: none): 144 nM

GCAGCAUAGUCGGAAUACGACAUACAUGAGGAUCACCCAUGUCAGGAUAUGGUCUGGAUUACAGGCCAGAAGGGACGAAGCUGC [Eli exng3 - 006] (Eterna round: R96, puzzle: Exclusion NG 3)
apparent KD of MS2 coat protein (input ligand: FMN 200 uM): 18.4 nM | apparent KD of MS2 coat protein [2]: 17.6 nM | apparent KD of MS2 coat protein (input ligand: none): 21.5 nM

CUUGUUUAUGUAGGAUAUGCCUGGCGUGCCUUUGCAGAAGGACAUGAGGAUCACCCAUGUGGUAUGAGGCUUACCCUUGUCGCC [salish99_ExNG1_r04_121] (Eterna round: R96, puzzle: Exclusion NG 1)
apparent KD of MS2 coat protein (input ligand: FMN 200 uM): 30.6 nM | apparent KD of MS2 coat protein [2]: 21.1 nM | apparent KD of MS2 coat protein (input ligand: none): 28.9 nM

UCGCUCCGUGUAGGAUAUCGUUGUAUUAUGCGGCGAGAAGGACAUGAGGAUCACCCAUGUAUGUUAUUAUCACGCGUGGCGCAA [Design 66] (Eterna round: R96, puzzle: Exclusion NG 1)
apparent KD of MS2 coat protein (input ligand: FMN 200 uM): 14.8 nM | apparent KD of MS2 coat protein [2]: 14.8 nM | apparent KD of MS2 coat protein (input ligand: none): 18.7 nM

GAUCGCCGUGUCAGGAUAUCUUGUGUACCCACGUUAGAGAAGGGACAUGAGGAUCACCCAUGUACCCUGGUUCU [Brourd's mod of Exclusion 4 (MOD3 of Nando's BmEX4 C.21)] (Eterna round: R97, puzzle: Brourd's mod of Exclusion 4)
apparent KD of MS2 coat protein (input ligand: FMN 200 uM): 18.7 nM | apparent KD of MS2 coat protein (input ligand: none): 17.8 nM

UGUUGUUACGCAGGAUAUGAGGAUCACCCAUAGAAGGAUAUCGAAAGAGAAGGUCUGAGGAUUACCCAGAAGGGCGGGUUAACA [pwkr exNG2 2xF5 2xFMN.1] (Eterna round: R96, puzzle: Exclusion NG 2)
apparent KD of MS2 coat protein (input ligand: FMN 200 uM): 714 nM | apparent KD of MS2 coat protein [2]: 153 nM | apparent KD of MS2 coat protein (input ligand: none): 139 nM

GGACACUGAGGAUAUACAAUUCAGGUCCUCCUGUAGAGUAUACAUGAGGAUCACCCAUGUAGAAGGCAGACCAA [Aronberiat] (Eterna round: R97, puzzle: Exclusion 2)
apparent KD of MS2 coat protein (input ligand: FMN 200 uM): 344 nM | apparent KD of MS2 coat protein (input ligand: none): 44.9 nM

GAGAAGGUAGGAUAUACGAAUAAAAAGGGUAGAAUAAGAACACAUGAGGAUCACCCAUGUAGAAGGACCAAGAG [Mat - Exclusion 2 - Mod of my Tesla design - D21] (puzzle: Exclusion 2)
apparent KD of MS2 coat protein [3]: 32.8 nM | apparent KD of MS2 coat protein [1]: 18.4 nM | apparent KD of MS2 coat protein [4]: 18.5 nM

UCAGGUCGGUAGGAUAUCGACGGGAAAAGCCCACGAGAAGGACUGACAUGAGGAUCACCCAUGUGAGCGUAACC [EX6 B.1] (Eterna round: R97, puzzle: Exclusion 6)
apparent KD of MS2 coat protein (input ligand: FMN 200 uM): 37.9 nM | apparent KD of MS2 coat protein (input ligand: none): 101 nM

GGGCCGGCCGGAGGAUAUGCGGCUUGGUUGGUCGGUGGGCCGGCCGGGACAUGAGGAUCACCCAUGUAGAAGGCUGGUUGGUUC [less GC, MS2 in another position, A 14%] (Eterna round: R96, puzzle: Exclusion NG 2)
apparent KD of MS2 coat protein (input ligand: FMN 200 uM): 58.2 nM | apparent KD of MS2 coat protein [2]: 42.8 nM | apparent KD of MS2 coat protein (input ligand: none): 60.7 nM
